To fix the notation:
B1: HA-tagged TGF-β type I receptor ALK5 [not stated] / Myc-tagged mouse Fscn1 [mouse] (parent)
chain 1: not shown
chain 2: LQCFCHLCTKDNFTCVTDGLCFVSVTETTDKVIHNSMCIAEIDLIPRDRPFVCAPSSKTGSVTTTYCCNQDHCNKIELPTTVKSSPGLGPVELAAVIAGPVCFVCISLMLMVYICHNRTVIHHRVPNEEDPSLDRPFISEGTTLKDLIYDMTTSGSGSGLPLLVQRTIARTIVLQESIGKGRFGEVWRGKWRGEEVAVKIFSSREERSWFREAEIYQTVMLRHENILGFIAADNKDNGTWTQLWLVSDYHEHGSLFDYLNRYTVTVEGMIKLALSTASGLAHLHMEIVGTQGKPAIAHRDLKSKNILVKKNGTCCIADLGLAVRHDSATDTIDIAPNHRVGTKRYMAPEVLDDSINMKHFESFKRADIYAMGLVFWEIARRCSIGGIHEDYQLPYYDLVPSDPSVEEMRKVVCEQKLRPNIPNRWQSCEALRVMAKIMRECWYANGAARLTALRIKKTLSQLSQQEGIKM
B2: HA-tagged Activin/Nodal type I receptor ALK4 [not stated] / Myc-tagged mouse Fscn1 [mouse] (parent)
chain 1: not shown
chain 2: SGPRGVQALLCACTSCLQANYTCETDGACMVSIFNLDGMEHHVRTCIPKVELVPAGKPFYCLSSEDLRNTHCCYTDYCNRIDLRVPSGHLKEPEHPSMWGPVELVGIIAGPVFLLFLIIIIVFLVINYHQRVYHNRQRLDMEDPSCEMCLSKDKTLQDLVYDLSTSGSGSGLPLFVQRTVARTIVLQEIIGKGRFGEVWRGRWRGGDVAVKIFSSREERSWFREAEIYQTVMLRHENILGFIAADNKDNGTWTQLWLVSDYHEHGSLFDYLNRYTVTIEGMIKLALSAASGLAHLHMEIVGTQGKPGIAHRDLKSKNILVKKNGMCAIADLGLAVRHDAVTDTIDIAPNQRVGTKRYMAPEVLDETINMKHFDSFKCADIYALGLVYWEIARRCNSGGVHEEYQLPYYDLVPSDPSIEEMRKVVCDQKLRPNIPNWWQSYEALRVMGKMMRECWYANGAARLTALRIKKTLSQLSVQEDVKI

The first test covers variants of B1. The test can be described thus: co-immunoprecipitation (IP anti-Myc, IB anti-HA) with band quantification. Conditions: transfected cells in 60 mm dishes, ALK5 KR-HA 2 μg, Myc-mFscn1 1.5 μg.
On to chain 2 K199R, for which the ratio to parent is 0.56.

Staying with this test, now noted: HEK293 cells, 60 mm dishes, CA-ALK5-HA 2 μg, Myc-mFscn1 1.5 μg, no TGF-β1 or Activin A in the CA lane.
chain 2 T171D: the ratio to parent worked out at 1.87.

A further test covers variants of B2. Described as above. Conditions: HEK293 cells, 60 mm dishes, CA-ALK4-HA 2 μg, Myc-mFscn1 1.5 μg, no TGF-β1 or Activin A in the CA lane.
For chain 2 T183D, the ratio to parent came out at 2.34.
